Results published in US20220380478A1 (published 2022).
Read-outs that look alike come from different tables or passages of the source.

T1: CD32bF (FcγRIIbF) (UniProt P31994 43-217)
T1 chain: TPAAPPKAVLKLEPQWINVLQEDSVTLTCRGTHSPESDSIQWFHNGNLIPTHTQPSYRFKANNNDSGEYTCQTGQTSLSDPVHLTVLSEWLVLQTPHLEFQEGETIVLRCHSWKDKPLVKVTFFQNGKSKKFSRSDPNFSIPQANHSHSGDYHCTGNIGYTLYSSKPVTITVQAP

T2: CD32aH (FcγRIIaH) (UniProt P12318 34-217)
T2 chain: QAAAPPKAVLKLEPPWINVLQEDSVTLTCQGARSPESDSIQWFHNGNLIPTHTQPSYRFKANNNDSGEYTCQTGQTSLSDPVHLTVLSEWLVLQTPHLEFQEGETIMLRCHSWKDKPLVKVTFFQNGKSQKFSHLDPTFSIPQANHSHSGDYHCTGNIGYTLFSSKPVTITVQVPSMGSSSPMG

T3: FcγRIA (CD64) (UniProt P12314 16-292)
T3 chain: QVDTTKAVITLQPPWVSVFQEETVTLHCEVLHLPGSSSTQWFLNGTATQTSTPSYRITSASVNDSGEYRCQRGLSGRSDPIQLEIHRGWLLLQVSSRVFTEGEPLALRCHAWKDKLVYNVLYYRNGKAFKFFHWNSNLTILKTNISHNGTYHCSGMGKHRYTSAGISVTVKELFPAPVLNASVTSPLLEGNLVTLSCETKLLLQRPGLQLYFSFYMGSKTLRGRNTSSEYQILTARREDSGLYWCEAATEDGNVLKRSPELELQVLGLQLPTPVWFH


Key:
Mouse_anti-CD40L = experiment: flow cytometry
Mouse anti hCD40L = experiment: FACS cell binding; apparent Kd
CD32bF (FcγRIIbF) [1] = target: T1, CD32bF (FcγRIIbF); experiment: SPR
CD16aF (FcγRIIIaF) [2] = target: T4, CD16aF (FcγRIIIaF) (UniProt P08637 17-208); experiment: SPR
CD32aH (FcγRIIaH) [3] = target: T2, CD32aH (FcγRIIaH); experiment: SPR
CD16aV (FcγRIIIaV) [4] = target: T5, CD16aV (FcγRIIIaV) (UniProt P08637 17-208); experiment: SPR
FcγRIA (CD64) [5] = target: T3, FcγRIA (CD64); experiment: SPR; avid
CD32bF (FcγRIIbF) [6] = target: T1, CD32bF (FcγRIIbF); experiment: SPR
CD16aF (FcγRIIIaF) [7] = target: T4, CD16aF (FcγRIIIaF); experiment: SPR; remark: listed apart in the source
CD32aH (FcγRIIaH) [8] = target: T2, CD32aH (FcγRIIaH); experiment: SPR
CD16aV (FcγRIIIaV) [9] = target: T5, CD16aV (FcγRIIIaV); experiment: SPR; remark: listed apart in the source
FcγRIA (CD64) [10] = target: T3, FcγRIA (CD64); experiment: SPR
FcγRIA (CD64) [11] = target: T3, FcγRIA (CD64); experiment: SPR; avid

T4 sequence (P08637 17-208): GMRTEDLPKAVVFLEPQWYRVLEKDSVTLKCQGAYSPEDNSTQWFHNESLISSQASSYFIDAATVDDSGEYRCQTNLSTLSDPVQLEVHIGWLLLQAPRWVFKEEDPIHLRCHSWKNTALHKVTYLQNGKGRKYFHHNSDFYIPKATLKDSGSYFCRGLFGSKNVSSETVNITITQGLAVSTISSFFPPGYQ
T5 sequence (P08637 17-208 F176V): as the sequence (P08637 17-208) above, with F160V counted along it

Row | Binder | Kd (Mouse_anti-CD40L) [µM] | Kd (Mouse anti hCD40L) [µM] | Kd (CD32bF (FcγRIIbF) [1]) [µM] | Kd (CD16aF (FcγRIIIaF) [2]) [µM] | Kd (CD32aH (FcγRIIaH) [3]) [µM] | Kd (CD16aV (FcγRIIIaV) [4]) [µM] | Kd (FcγRIA (CD64) [5]) [nM] | Kd (CD32bF (FcγRIIbF) [6]) [µM] | Kd (CD16aF (FcγRIIIaF) [7]) [µM] | Kd (CD32aH (FcγRIIaH) [8]) [µM] | Kd (CD16aV (FcγRIIIaV) [9]) [µM] | Kd (FcγRIA (CD64) [10]) [µM] | Kd (FcγRIA (CD64) [11]) [µM]
1 | TNX09 anti-CD154 monoclonal antibody (antibody) heavy: not shown light: DIVLTQSPATLSVSPGERATISCRASQRVSSSTYSYMHWYQQKPGQPPKLLIKYASNLESGVPARFSGSGSGTDFTLTISSVEPEDFATYYCQHSWEIPPTFGGGTKLEIKRTVAAPSVFIFPPSDEQLKSGTASVVCLLNNFYPREAKVQWKVDNALQSGNSQESVTEQDSKDSTYSLSSTLTLSKADYEKHKVYACEVTHQGLSSPVTKSFNRGEC |  |  | > 12 | > 5 | > 12 | 3.77 |  |  |  |  |  | 0.147 | 
2 | TNX10 anti-CD154 monoclonal antibody (antibody) heavy: not shown light: DIVLTQSPATLSVSPGERATISCRASQRVSSSTYSYMHWYQQKPGQPPKLLIKYASNLESGVPARFSGSGSGTDFTLTISSVEPEDFATYYCQHSWEIPPTFGGGTKLEIKRTVAAPSVFIFPPSDEQLKSGTASVVCLLNNFYPREAKVQWKVDNALQSGNSQESVTEQDSKDSTYSLSSTLTLSKADYEKHKVYACEVTHQGLSSPVTKSFNRGEC |  |  | > 12 | > 5 | > 12 | 4.63 |  |  |  |  |  | 0.0687 | 
3 | TNX05 anti-CD154 monoclonal antibody (antibody) heavy: not shown light: DIVLTQSPATLSVSPGERATISCRASQRVSSSTYSYMHWYQQKPGQPPKLLIKYASNLESGVPARFSGSGSGTDFTLTISSVEPEDFATYYCQHSWEIPPTFGGGTKLEIKRTVAAPSVFIFPPSDEQLKSGTASVVCLLNNFYPREAKVQWKVDNALQSGNSQESVTEQDSKDSTYSLSSTLTLSKADYEKHKVYACEVTHQGLSSPVTKSFNRGEC |  |  |  |  |  |  | 8.8 | 4.9 | 8.11 | 7.17 | 6.04 |  | 0.0087
4 | TNX01 anti-CD154 monoclonal antibody (antibody) heavy: not shown light: DIVLTQSPATLSVSPGERATISCRASQRVSSSTYSYMHWYQQKPGQPPKLLIKYASNLESGVPARFSGSGSGTDFTLTISSVEPEDFATYYCQHSWEIPPTFGGGTKLEIKRTVAAPSVFIFPPSDEQLKSGTASVVCLLNNFYPREAKVQWKVDNALQSGNSQESVTEQDSKDSTYSLSSTLTLSKADYEKHKVYACEVTHQGLSSPVTKSFNRGEC |  |  |  |  |  |  | 56 | > 12 | > 5 | > 12 | > 5 |  | 0.0765
5 | TNX13 anti-CD154 monoclonal antibody (antibody) heavy: not shown light: DIVLTQSPATLSVSPGERATISCRASQRVSSSTYSYMHWYQQKPGQPPKLLIKYASNLESGVPARFSGSGSGTDFTLTISSVEPEDFATYYCQHSWEIPPTFGGGTKLEIKRTVAAPSVFIFPPSDEQLKSGTASVVCLLNNFYPREAKVQWKVDNALQSGNSQESVTEQDSKDSTYSLSSTLTLSKADYEKHKVYACEVTHQGLSSPVTKSFNRGEC |  |  | 5.84 | > 5 | 8.95 | > 5 |  |  |  |  |  | 0.000222 | 
6 | TNX08 anti-CD154 monoclonal antibody (antibody) heavy: not shown light: DIVLTQSPATLSVSPGERATISCRASQRVSSSTYSYMHWYQQKPGQPPKLLIKYASNLESGVPARFSGSGSGTDFTLTISSVEPEDFATYYCQHSWEIPPTFGGGTKLEIKRTVAAPSVFIFPPSDEQLKSGTASVVCLLNNFYPREAKVQWKVDNALQSGNSQESVTEQDSKDSTYSLSSTLTLSKADYEKHKVYACEVTHQGLSSPVTKSFNRGEC |  |  | 4.2 | 4.44 | 9.03 | 3.56 |  |  |  |  |  | 0.103 | 

Other lines, results leading:

Row | Kd (Mouse_anti-CD40L) [µM] | Kd (Mouse anti hCD40L) [µM] | Kd (CD32bF (FcγRIIbF) [1]) [µM] | Kd (CD16aF (FcγRIIIaF) [2]) [µM] | Kd (CD32aH (FcγRIIaH) [3]) [µM] | Kd (CD16aV (FcγRIIIaV) [4]) [µM] | Kd (FcγRIA (CD64) [5]) [nM] | Kd (CD32bF (FcγRIIbF) [6]) [µM] | Kd (CD16aF (FcγRIIIaF) [7]) [µM] | Kd (CD32aH (FcγRIIaH) [8]) [µM] | Kd (CD16aV (FcγRIIIaV) [9]) [µM] | Kd (FcγRIA (CD64) [10]) [µM] | Kd (FcγRIA (CD64) [11]) [µM] | Binder
7 | 0.000339 | 0.00039 |  |  |  |  |  |  |  |  |  |  |  | D1.1 (ligand) MIETYNQTSPRSAATGLPISMKIFMYLLTVFLITQMIGSALFAVYLHRRLDKIEDERNLHEDFVFMKTIQRCNTGERSLSLLNCEEIKSQFEGFVKDIMLNKEETKKENSFEMQKGDQNPQIAAHVISEASSKTTSVLQWAEKGYYTMSNNLVTLENGKQLTVKRQGLYYIYAQVTFCSNREASSQAPFIASLCLKSPGRFERILLRAANTHSSAKPCGQQSIHLGGVFELQPGASVFVNVTDPSQVSHGTGFTSFGLLKL
8 |  |  | 1.03 | 1.81 | 0.525 | 0.333 | 0.0288 | 0.91 | 1.7 | 0.5 | 0.32 |  |  | TNX02 anti-CD154 monoclonal antibody (antibody) heavy: not shown light: DIVLTQSPATLSVSPGERATISCRASQRVSSSTYSYMHWYQQKPGQPPKLLIKYASNLESGVPARFSGSGSGTDFTLTISSVEPEDFATYYCQHSWEIPPTFGGGTKLEIKRTVAAPSVFIFPPSDEQLKSGTASVVCLLNNFYPREAKVQWKVDNALQSGNSQESVTEQDSKDSTYSLSSTLTLSKADYEKHKVYACEVTHQGLSSPVTKSFNRGEC
9 |  |  | 2.53 | 3.17 | 3.19 | 2.09 |  |  |  |  |  | 0.000285 |  | TNX06 anti-CD154 monoclonal antibody (antibody) heavy: not shown light: DIVLTQSPATLSVSPGERATISCRASQRVSSSTYSYMHWYQQKPGQPPKLLIKYASNLESGVPARFSGSGSGTDFTLTISSVEPEDFATYYCQHSWEIPPTFGGGTKLEIKRTVAAPSVFIFPPSDEQLKSGTASVVCLLNNFYPREAKVQWKVDNALQSGNSQESVTEQDSKDSTYSLSSTLTLSKADYEKHKVYACEVTHQGLSSPVTKSFNRGEC
10 |  |  | > 12 | > 5 | > 12 | > 5 |  |  |  |  |  | 0.000479 |  | TNX11 anti-CD154 monoclonal antibody (antibody) heavy: not shown light: DIVLTQSPATLSVSPGERATISCRASQRVSSSTYSYMHWYQQKPGQPPKLLIKYASNLESGVPARFSGSGSGTDFTLTISSVEPEDFATYYCQHSWEIPPTFGGGTKLEIKRTVAAPSVFIFPPSDEQLKSGTASVVCLLNNFYPREAKVQWKVDNALQSGNSQESVTEQDSKDSTYSLSSTLTLSKADYEKHKVYACEVTHQGLSSPVTKSFNRGEC
11 |  |  | 2.45 | 3.66 | 3.01 | 3.01 |  |  |  |  |  | 0.000253 |  | TNX07 anti-CD154 monoclonal antibody (antibody) heavy: not shown light: DIVLTQSPATLSVSPGERATISCRASQRVSSSTYSYMHWYQQKPGQPPKLLIKYASNLESGVPARFSGSGSGTDFTLTISSVEPEDFATYYCQHSWEIPPTFGGGTKLEIKRTVAAPSVFIFPPSDEQLKSGTASVVCLLNNFYPREAKVQWKVDNALQSGNSQESVTEQDSKDSTYSLSSTLTLSKADYEKHKVYACEVTHQGLSSPVTKSFNRGEC
12 |  |  |  |  |  |  | 89.8 | > 12 | > 5 | > 12 | > 5 |  | 0.092 | TNX03 anti-CD154 monoclonal antibody (antibody) heavy: not shown light: DIVLTQSPATLSVSPGERATISCRASQRVSSSTYSYMHWYQQKPGQPPKLLIKYASNLESGVPARFSGSGSGTDFTLTISSVEPEDFATYYCQHSWEIPPTFGGGTKLEIKRTVAAPSVFIFPPSDEQLKSGTASVVCLLNNFYPREAKVQWKVDNALQSGNSQESVTEQDSKDSTYSLSSTLTLSKADYEKHKVYACEVTHQGLSSPVTKSFNRGEC
13 |  |  |  |  |  |  | 0.309 | 18 | > 5 | 36.6 | 18.7 |  | 0.00033 | TNX04 anti-CD154 monoclonal antibody (antibody) heavy: not shown light: DIVLTQSPATLSVSPGERATISCRASQRVSSSTYSYMHWYQQKPGQPPKLLIKYASNLESGVPARFSGSGSGTDFTLTISSVEPEDFATYYCQHSWEIPPTFGGGTKLEIKRTVAAPSVFIFPPSDEQLKSGTASVVCLLNNFYPREAKVQWKVDNALQSGNSQESVTEQDSKDSTYSLSSTLTLSKADYEKHKVYACEVTHQGLSSPVTKSFNRGEC
14 |  |  | 8.41 | > 5 | > 12 | > 5 |  |  |  |  |  | 0.000259 |  | TNX12 anti-CD154 monoclonal antibody (antibody) heavy: not shown light: DIVLTQSPATLSVSPGERATISCRASQRVSSSTYSYMHWYQQKPGQPPKLLIKYASNLESGVPARFSGSGSGTDFTLTISSVEPEDFATYYCQHSWEIPPTFGGGTKLEIKRTVAAPSVFIFPPSDEQLKSGTASVVCLLNNFYPREAKVQWKVDNALQSGNSQESVTEQDSKDSTYSLSSTLTLSKADYEKHKVYACEVTHQGLSSPVTKSFNRGEC
